According to PMC3472128 (Structure (London, England : 1993), 2012):
Numbering of substitutions follows the chain as printed. Names and notes keep the numbering of the source. Values joined by “and” are separate entries in the source; they are usually repeats but may differ in a detail not shown here. Equal values may be shown once.

T1: Smad7 PY peptide Ac-ELESPPPPYSRYPMD-NH2 (203-217) (human)
T1 peptide: Ac-ELESPPPPYSRYPMD-NH2

B1: Smurf1 WW1-WW2 pair (domain or fragment)
chain: SPELPEGYEQRTTVQGQVYFLHTQTGVSTWHDPRIPRDLNSVNCDELGPLPPGWEVRSTVSGRIYFVDHNNRTTQFTDPRLH
B2: Smurf2 WW2-WW3 pair (domain or fragment)
chain: PPDLPEGYEQRTTQQGQVYFLHTQTGVSTWHDPRVPRDLSNINCEELGPLPPGWEIRNTATGRVYFVDHNNRTTQFTDPRLSAN
B3: Nedd4L WW2 domain Arg380Glu (domain or fragment)
chain: not shown
B4: Nedd4L WW2 domain Lys378Glu (domain or fragment)
chain: not shown
B5: Nedd4L WW2 domain Lys378/Arg380 to Glu (domain or fragment)
chain: not shown
B6: Smurf1 WW1-WW2 pair Arg243Ala (domain or fragment)
chain: B1 chain with R11A
B7: Smurf1 WW1-WW2 pair Gln247 and Gln249 to Glu (domain or fragment)
chain: B1 chain with Q15E, Q17E
B8: Smurf1 WW1-WW2 pair Gln249Glu (domain or fragment)
chain: B1 chain with Q17E
B9: Smurf1 WW1-WW2 pair Arg243Glu (domain or fragment)
chain: B1 chain with R11E
B10: Nedd4L WW2-WW3 pair (domain or fragment)
chain: TPGLPSGWEERKDAKGRTYYVNHNNRTTTWTRPIMQLAEDGASGSATNSNNHLIEPQIRRPRSLSSPTVTLSAPLEGAKDSPVRRAVKDTLSNPQSPQPSPYNSPKPQHKVTQSFLPPGWEMRIAPNGRPFFIDHNTKTTTWEDPRL
B11: Nedd4L WW2 domain (364-403) (domain or fragment)
chain: not shown
B12: Smurf2 WW3 domain (297-333) (domain or fragment)
chain: not shown
B13: Nedd4L WW3-WW4 pair (domain or fragment)
chain: SFLPPGWEMRIAPNGRPFFIDHNTKTTTWEDPRLKFPVHMRSKTSLNPNDLGPLPPGWEERIHLDGRTFYIDHNSKITQWEDPRL
B14: Nedd4L WW1-WW2 pair (domain or fragment)
chain: not shown
B15: Nedd4L WW1 domain (domain or fragment)
chain: not shown
B16: YAP WW1-WW2 pair (domain or fragment)
chain: SSFEIPDDVPLPAGWEMAKTSSGQRYFLNHIDQTTTWQDPRKAMLSQMNVTAPTSPPVQQNMMNSASGPLPDGWEQAMTQDGEIYYINHKNKTTSWLDPRLDPR

Molecular target: T1, Smad7 PY peptide Ac-ELESPPPPYSRYPMD-NH2 …
Experiment: ITC

Kd	Binder
0.7 ± 0.3 µM	B1
0.7 ± 0.3 µM	B2

Molecular target: T1, Smad7 PY peptide Ac-ELESPPPPYSRYPMD-NH2 …
Experiment: ITC
Remark: another data set of the same source

Kd	Binder
5 ± 0.3 µM	B1
5 ± 0.3 µM	B2

Molecular target: T1, Smad7 PY peptide Ac-ELESPPPPYSRYPMD-NH2 …
Experiment: ITC
Remark: another data set of the same source

fold reduction of affinity against wild-type YAP WW1	Kd	fold reduction of affinity against the wild-type WW1-WW2 pair	fold improvement of affinity against wild-type YAP WW2	Binder
2 fold				SSFEIPDDVPLPAGWEMAKTSSGERYFLNHIDQTTTWQDPRKAM (domain or fragment, human, UniProt P46937 163-206, looked up) [YAP WW1 domain Q186E]
	48.6 ± 6.4 µM			DELGPLPPGWEVRSTVSGEIYFVDHNNRTTQFTDPRLH (domain or fragment, human, UniProt Q9HCE7-2 277-314, looked up) [Smurf1 WW2 domain Arg295Glu]
	15.4 ± 3.5 µM			B3
	23.5 ± 1.5 µM			B4
	27.3 ± 2.2 µM			B5
	34.2 ± 1.6 µM			GPLPPGWEIRNTATGEVYFVDHNNRTTQFTDPRLSAN (domain or fragment, human, UniProt Q9HAU4 297-333, looked up) [Smurf2 WW3 domain R312E]
		3 fold		B6
		3 fold		B7
		3 fold		B8
		10 fold		B9
			2 fold	SASGPLPDGWEQAMTQQGQIYYINHKNKTTSWLDPRLDPR (domain or fragment, human, UniProt P46937 227-266, looked up) [YAP WW2 domain Asp243 and Glu245 to Glutamine]

Molecular target: the molecule itself
Experiment: native MS

Binder	stoichiometry N
B2	2 and 3

Molecular target: the molecule itself
Experiment: NMR

Binder	stoichiometry N
SPELPEGYEQRTTVQGQVYFLHTQTGVSTWHDPRIPRD (domain or fragment, human, UniProt Q9HCE7-2 233-270, looked up) [Smurf1 WW1 domain (residues 233-270)]	2

Molecular target: T1, Smad7 PY peptide Ac-ELESPPPPYSRYPMD-NH2 …
Experiment: ITC
Remark: another data set of the same source

Kd	stoichiometry N	fold weaker dissociation constant than YAP WW1	Binder
6.9 ± 0.28 µM			SSFEIPDDVPLPAGWEMAKTSSGQRYFLNHIDQTTTWQDPRKAM (domain or fragment, human, UniProt P46937 163-206, looked up) [YAP WW1 domain (residues 163-206)]
4.1 ± 0.6 µM	1		DELGPLPPGWEVRSTVSGRIYFVDHNNRTTQFTDPRLH (domain or fragment, human, UniProt Q9HCE7-2 277-314, looked up) [Smurf1 WW2 domain (residues 277-314)]
	2 equivalents of peptide per protein		B10
	1		B11
	1		GPLPPGWEERIHLDGRTFYIDHNSKITQWEDPRL (domain or fragment) [Nedd4L WW4 domain]
4.1 µM	1		B12
	1		B13
	1		B14
1.7 ± 0.3 µM	0.7		B1
	1		B15
9.8 ± 0.9 µM	1		B16
		9 fold	SASGPLPDGWEQAMTQDGEIYYINHKNKTTSWLDPRLDPR (domain or fragment, human, UniProt P46937 227-266, looked up) [YAP WW2 domain (residues 227-266)]
1.7 ± 0.3 µM			B2
	1		SFLPPGWEMRIAPNGRPFFIDHNTKTTTWEDPRL (domain or fragment) [Nedd4L WW3 domain]
